Laboratory results as given in patent US20240287484.

Experiments:
Conditions in all cases: qPCR; 3 mM MgCl2, 37 C
[1] = system: T1, MG165-4 RT (uncultivated organism (metagenomic))
T1 sequence: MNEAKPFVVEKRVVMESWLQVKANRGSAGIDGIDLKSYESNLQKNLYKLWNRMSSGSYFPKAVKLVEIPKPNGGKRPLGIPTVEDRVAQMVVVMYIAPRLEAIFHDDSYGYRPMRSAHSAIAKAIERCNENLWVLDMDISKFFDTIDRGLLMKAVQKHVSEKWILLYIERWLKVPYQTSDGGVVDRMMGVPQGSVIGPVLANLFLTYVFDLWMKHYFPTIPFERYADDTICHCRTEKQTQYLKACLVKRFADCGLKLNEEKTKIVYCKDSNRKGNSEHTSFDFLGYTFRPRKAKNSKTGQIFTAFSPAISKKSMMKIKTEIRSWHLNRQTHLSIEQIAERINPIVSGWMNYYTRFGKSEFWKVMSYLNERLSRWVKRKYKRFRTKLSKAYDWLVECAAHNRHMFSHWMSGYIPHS

[2] = system: T2, MG165-8 RT (uncultivated organism (metagenomic))
T2 sequence: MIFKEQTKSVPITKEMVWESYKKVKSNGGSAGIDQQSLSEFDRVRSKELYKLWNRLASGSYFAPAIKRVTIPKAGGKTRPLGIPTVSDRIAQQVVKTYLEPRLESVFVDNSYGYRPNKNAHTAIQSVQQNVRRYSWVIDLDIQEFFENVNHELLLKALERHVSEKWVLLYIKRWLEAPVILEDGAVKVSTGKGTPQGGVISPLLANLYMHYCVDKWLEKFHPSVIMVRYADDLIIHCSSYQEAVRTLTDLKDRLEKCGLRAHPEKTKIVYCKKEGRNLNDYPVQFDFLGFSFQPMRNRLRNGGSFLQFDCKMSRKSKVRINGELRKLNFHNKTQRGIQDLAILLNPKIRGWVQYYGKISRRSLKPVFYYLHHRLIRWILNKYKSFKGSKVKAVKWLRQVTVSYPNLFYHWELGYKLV

[3] = system: T3, MG165-6 RT (uncultivated organism (metagenomic))
T3 sequence: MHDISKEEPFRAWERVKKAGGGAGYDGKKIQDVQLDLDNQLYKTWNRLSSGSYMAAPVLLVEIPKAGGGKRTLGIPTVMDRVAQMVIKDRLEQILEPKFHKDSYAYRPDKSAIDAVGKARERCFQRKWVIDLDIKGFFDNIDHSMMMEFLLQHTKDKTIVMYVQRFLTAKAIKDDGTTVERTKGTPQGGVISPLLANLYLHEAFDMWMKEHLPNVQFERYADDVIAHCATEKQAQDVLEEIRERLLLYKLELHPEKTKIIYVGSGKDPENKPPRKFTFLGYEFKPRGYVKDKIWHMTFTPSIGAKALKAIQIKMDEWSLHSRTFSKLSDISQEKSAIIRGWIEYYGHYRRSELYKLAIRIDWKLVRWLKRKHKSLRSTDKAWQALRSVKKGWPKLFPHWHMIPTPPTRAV

[4] = system: T4, MG153-14 RT (uncultivated organism (metagenomic))
T4 sequence: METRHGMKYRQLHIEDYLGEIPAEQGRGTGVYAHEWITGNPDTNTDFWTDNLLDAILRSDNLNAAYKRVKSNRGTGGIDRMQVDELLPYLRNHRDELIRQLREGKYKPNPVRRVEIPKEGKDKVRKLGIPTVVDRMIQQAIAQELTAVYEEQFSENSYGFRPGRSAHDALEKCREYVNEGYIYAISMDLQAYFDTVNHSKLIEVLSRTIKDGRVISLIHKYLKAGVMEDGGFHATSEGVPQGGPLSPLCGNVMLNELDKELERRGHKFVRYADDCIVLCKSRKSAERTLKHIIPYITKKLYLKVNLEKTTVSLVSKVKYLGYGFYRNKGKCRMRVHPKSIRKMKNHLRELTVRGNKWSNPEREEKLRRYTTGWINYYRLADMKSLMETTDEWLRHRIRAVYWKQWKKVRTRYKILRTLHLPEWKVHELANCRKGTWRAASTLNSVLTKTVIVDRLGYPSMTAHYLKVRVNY

[5] = system: T5, MG153-40 RT (uncultivated organism (metagenomic))
T5 sequence: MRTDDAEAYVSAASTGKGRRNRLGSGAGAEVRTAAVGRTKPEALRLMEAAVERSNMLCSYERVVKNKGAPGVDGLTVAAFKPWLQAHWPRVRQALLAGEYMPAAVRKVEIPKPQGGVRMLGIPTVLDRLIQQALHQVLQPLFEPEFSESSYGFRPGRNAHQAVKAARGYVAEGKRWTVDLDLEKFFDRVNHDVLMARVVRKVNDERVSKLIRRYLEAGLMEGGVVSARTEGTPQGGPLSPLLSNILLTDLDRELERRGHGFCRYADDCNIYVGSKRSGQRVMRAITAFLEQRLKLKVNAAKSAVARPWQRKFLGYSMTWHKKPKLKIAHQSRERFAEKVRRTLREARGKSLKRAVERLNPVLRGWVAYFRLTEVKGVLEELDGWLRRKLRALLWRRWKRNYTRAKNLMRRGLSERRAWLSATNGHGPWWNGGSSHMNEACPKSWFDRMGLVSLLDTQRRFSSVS

[6] = system: MG167-5 RT (uncultivated organism (metagenomic))
[7] = system: T6, MG167-3 RT (uncultivated organism (metagenomic))
T6 sequence: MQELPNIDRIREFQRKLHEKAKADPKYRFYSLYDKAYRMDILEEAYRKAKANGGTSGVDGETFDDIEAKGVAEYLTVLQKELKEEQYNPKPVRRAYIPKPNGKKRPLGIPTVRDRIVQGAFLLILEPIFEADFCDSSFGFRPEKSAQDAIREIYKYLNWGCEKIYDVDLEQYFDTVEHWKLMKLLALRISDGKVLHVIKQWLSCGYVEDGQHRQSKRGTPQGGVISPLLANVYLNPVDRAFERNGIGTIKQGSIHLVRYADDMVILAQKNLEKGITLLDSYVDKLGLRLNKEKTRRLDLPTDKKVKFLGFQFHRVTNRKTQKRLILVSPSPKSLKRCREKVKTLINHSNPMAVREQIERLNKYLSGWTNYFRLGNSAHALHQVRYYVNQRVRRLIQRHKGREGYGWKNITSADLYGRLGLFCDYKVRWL

Measured: activity (fold over background)

MG167-5 RT (uncultivated organism (metagenomic)), sequence (chain, as listed by the source): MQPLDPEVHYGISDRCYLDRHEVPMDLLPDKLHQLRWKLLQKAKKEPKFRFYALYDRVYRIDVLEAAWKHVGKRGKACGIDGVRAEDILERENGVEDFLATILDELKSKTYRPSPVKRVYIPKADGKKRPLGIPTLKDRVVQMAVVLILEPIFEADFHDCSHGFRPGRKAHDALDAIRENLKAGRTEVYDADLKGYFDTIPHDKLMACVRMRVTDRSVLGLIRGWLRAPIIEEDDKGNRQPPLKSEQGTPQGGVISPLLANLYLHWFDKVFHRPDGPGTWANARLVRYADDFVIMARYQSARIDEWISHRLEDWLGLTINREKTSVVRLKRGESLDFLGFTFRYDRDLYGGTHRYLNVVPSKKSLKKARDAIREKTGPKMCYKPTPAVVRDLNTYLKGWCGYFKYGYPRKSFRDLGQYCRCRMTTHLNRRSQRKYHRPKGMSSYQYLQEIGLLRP

200 nt RNA template annealed to DNA primer
> 10: [1] | [2] | [3] | [4] | [5] | [6] | [7]
